Experimental data reported in patent publication US20100272723A1 (Xencor, published 2010).

Target: T1, human CD19 (human, UniProt P15391 20-556)
T1 construct: also called B-cell surface antigen B4; B-cell antigen CD19
T1 sequence: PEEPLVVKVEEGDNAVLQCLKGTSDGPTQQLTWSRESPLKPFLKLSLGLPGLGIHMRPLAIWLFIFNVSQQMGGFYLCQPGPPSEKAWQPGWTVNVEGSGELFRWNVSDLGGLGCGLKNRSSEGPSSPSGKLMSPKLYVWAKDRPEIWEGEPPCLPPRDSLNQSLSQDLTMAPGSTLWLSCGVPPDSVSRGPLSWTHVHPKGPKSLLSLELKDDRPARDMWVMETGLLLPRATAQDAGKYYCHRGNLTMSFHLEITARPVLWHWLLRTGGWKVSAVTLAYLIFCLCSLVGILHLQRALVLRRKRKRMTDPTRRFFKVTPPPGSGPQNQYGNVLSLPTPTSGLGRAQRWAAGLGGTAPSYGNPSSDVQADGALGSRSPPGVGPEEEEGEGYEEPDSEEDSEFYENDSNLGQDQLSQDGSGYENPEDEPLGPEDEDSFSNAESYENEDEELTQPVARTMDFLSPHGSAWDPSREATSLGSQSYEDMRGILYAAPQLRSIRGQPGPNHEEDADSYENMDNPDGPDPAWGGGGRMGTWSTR
Experiment: binding affinity relative to the parent H1L1 mAb (Example 5); assay and format not named on the sheet

Binder | Fold change binding [fold]
H1.52 / L1 (antibody, V domains shown, vs H1L1 (Kabat): VH S100cT; also called 4G7 H1.52_L1) VH: EVQLVESGGGLVKPGGSLKLSCAASGYTFTSYVMHWVRQAPGKGLEWIGYINPYNDGTKYNEKFQGRVTISSDKSISTAYMELSSLRSEDTAMYYCARGTYYYGTRVFDYWGQGTLVTVSS VL: DIVMTQSPATLSLSPGERATLSCRSSKSLLNSNGNTYLYWFQQKPGQSPQLLIYRMSNLASGVPDRFSGSGSGTEFTLTISSLEPEDFAVYYCMQHLEYPFTFGAGTKLEIK | 3.22
H1.52 / L1.155 (antibody, V domains shown, vs H1L1 (Kabat): VH S100cT; VL L27cQ/S27eV/A55N/F96I; also called 4G7 H1.52_L1.155) VH: EVQLVESGGGLVKPGGSLKLSCAASGYTFTSYVMHWVRQAPGKGLEWIGYINPYNDGTKYNEKFQGRVTISSDKSISTAYMELSSLRSEDTAMYYCARGTYYYGTRVFDYWGQGTLVTVSS VL: DIVMTQSPATLSLSPGERATLSCRSSKSLQNVNGNTYLYWFQQKPGQSPQLLIYRMSNLNSGVPDRFSGSGSGTEFTLTISSLEPEDFAVYYCMQHLEYPITFGAGTKLEIK | 6.16
H1.52 / L1.149 (antibody, V domains shown, vs H1L1 (Kabat): VH S100cT; VL L27cQ/A55N/F96I; also called 4G7 H1.52_L1.149) VH: EVQLVESGGGLVKPGGSLKLSCAASGYTFTSYVMHWVRQAPGKGLEWIGYINPYNDGTKYNEKFQGRVTISSDKSISTAYMELSSLRSEDTAMYYCARGTYYYGTRVFDYWGQGTLVTVSS VL: DIVMTQSPATLSLSPGERATLSCRSSKSLQNSNGNTYLYWFQQKPGQSPQLLIYRMSNLNSGVPDRFSGSGSGTEFTLTISSLEPEDFAVYYCMQHLEYPITFGAGTKLEIK | 8.6
H1.65 / L1 (antibody, V domains shown, vs H1L1 (Kabat): VH R100dS; also called 4G7 H1.65_L1) VH: EVQLVESGGGLVKPGGSLKLSCAASGYTFTSYVMHWVRQAPGKGLEWIGYINPYNDGTKYNEKFQGRVTISSDKSISTAYMELSSLRSEDTAMYYCARGTYYYGSSVFDYWGQGTLVTVSS VL: DIVMTQSPATLSLSPGERATLSCRSSKSLLNSNGNTYLYWFQQKPGQSPQLLIYRMSNLASGVPDRFSGSGSGTEFTLTISSLEPEDFAVYYCMQHLEYPFTFGAGTKLEIK | 1.41
H1 / L1.11 (antibody, V domains shown, vs H1L1 (Kabat): VL E93N; also called 4G7 H1_L1.11) VH: EVQLVESGGGLVKPGGSLKLSCAASGYTFTSYVMHWVRQAPGKGLEWIGYINPYNDGTKYNEKFQGRVTISSDKSISTAYMELSSLRSEDTAMYYCARGTYYYGSRVFDYWGQGTLVTVSS VL: DIVMTQSPATLSLSPGERATLSCRSSKSLLNSNGNTYLYWFQQKPGQSPQLLIYRMSNLASGVPDRFSGSGSGTEFTLTISSLEPEDFAVYYCMQHLNYPFTFGAGTKLEIK | 1.59
H1.62 / L1 (antibody, V domains shown, vs H1L1 (Kabat): VH R100dE; also called 4G7 H1.62_L1) VH: EVQLVESGGGLVKPGGSLKLSCAASGYTFTSYVMHWVRQAPGKGLEWIGYINPYNDGTKYNEKFQGRVTISSDKSISTAYMELSSLRSEDTAMYYCARGTYYYGSEVFDYWGQGTLVTVSS VL: DIVMTQSPATLSLSPGERATLSCRSSKSLLNSNGNTYLYWFQQKPGQSPQLLIYRMSNLASGVPDRFSGSGSGTEFTLTISSLEPEDFAVYYCMQHLEYPFTFGAGTKLEIK | 1.65
H1.52 / L1.139 (antibody, V domains shown, vs H1L1 (Kabat): VH S100cT; VL S27eV/F96N; also called 4G7 H1.52_L1.139) VH: EVQLVESGGGLVKPGGSLKLSCAASGYTFTSYVMHWVRQAPGKGLEWIGYINPYNDGTKYNEKFQGRVTISSDKSISTAYMELSSLRSEDTAMYYCARGTYYYGTRVFDYWGQGTLVTVSS VL: DIVMTQSPATLSLSPGERATLSCRSSKSLLNVNGNTYLYWFQQKPGQSPQLLIYRMSNLASGVPDRFSGSGSGTEFTLTISSLEPEDFAVYYCMQHLEYPNTFGAGTKLEIK | 1.8
H1.109 / L1 (antibody, V domains shown, vs H1L1 (Kabat): VH T57P; also called 4G7 H1.109_L1) VH: EVQLVESGGGLVKPGGSLKLSCAASGYTFTSYVMHWVRQAPGKGLEWIGYINPYNDGPKYNEKFQGRVTISSDKSISTAYMELSSLRSEDTAMYYCARGTYYYGSRVFDYWGQGTLVTVSS VL: DIVMTQSPATLSLSPGERATLSCRSSKSLLNSNGNTYLYWFQQKPGQSPQLLIYRMSNLASGVPDRFSGSGSGTEFTLTISSLEPEDFAVYYCMQHLEYPFTFGAGTKLEIK | 1.52
H1 / L1.124 (antibody, V domains shown, vs H1L1 (Kabat): VL L54W; also called 4G7 H1_L1.124) VH: EVQLVESGGGLVKPGGSLKLSCAASGYTFTSYVMHWVRQAPGKGLEWIGYINPYNDGTKYNEKFQGRVTISSDKSISTAYMELSSLRSEDTAMYYCARGTYYYGSRVFDYWGQGTLVTVSS VL: DIVMTQSPATLSLSPGERATLSCRSSKSLLNSNGNTYLYWFQQKPGQSPQLLIYRMSNWASGVPDRFSGSGSGTEFTLTISSLEPEDFAVYYCMQHLEYPFTFGAGTKLEIK | 1.47
H1.52 / L1.143 (antibody, V domains shown, vs H1L1 (Kabat): VH S100cT; VL L27cQ/A55N; also called 4G7 H1.52_L1.143) VH: EVQLVESGGGLVKPGGSLKLSCAASGYTFTSYVMHWVRQAPGKGLEWIGYINPYNDGTKYNEKFQGRVTISSDKSISTAYMELSSLRSEDTAMYYCARGTYYYGTRVFDYWGQGTLVTVSS VL: DIVMTQSPATLSLSPGERATLSCRSSKSLQNSNGNTYLYWFQQKPGQSPQLLIYRMSNLNSGVPDRFSGSGSGTEFTLTISSLEPEDFAVYYCMQHLEYPFTFGAGTKLEIK | 3.83
H1.78 / L1 (antibody, V domains shown, vs H1L1 (Kabat): VH D55A; also called 4G7 H1.78_L1) VH: EVQLVESGGGLVKPGGSLKLSCAASGYTFTSYVMHWVRQAPGKGLEWIGYINPYNAGTKYNEKFQGRVTISSDKSISTAYMELSSLRSEDTAMYYCARGTYYYGSRVFDYWGQGTLVTVSS VL: DIVMTQSPATLSLSPGERATLSCRSSKSLLNSNGNTYLYWFQQKPGQSPQLLIYRMSNLASGVPDRFSGSGSGTEFTLTISSLEPEDFAVYYCMQHLEYPFTFGAGTKLEIK | 1.14
H1.60 / L1 (antibody, V domains shown, vs H1L1 (Kabat): VH S100cL; also called 4G7 H1.60_L1) VH: EVQLVESGGGLVKPGGSLKLSCAASGYTFTSYVMHWVRQAPGKGLEWIGYINPYNDGTKYNEKFQGRVTISSDKSISTAYMELSSLRSEDTAMYYCARGTYYYGLRVFDYWGQGTLVTVSS VL: DIVMTQSPATLSLSPGERATLSCRSSKSLLNSNGNTYLYWFQQKPGQSPQLLIYRMSNLASGVPDRFSGSGSGTEFTLTISSLEPEDFAVYYCMQHLEYPFTFGAGTKLEIK | 1.56
H1.52 / L1.160 (antibody, V domains shown, vs H1L1 (Kabat): VH S100cT; VL L27cQ/S27eV/G29A/A55N/F96I; also called 4G7 H1.52_L1.160) VH: EVQLVESGGGLVKPGGSLKLSCAASGYTFTSYVMHWVRQAPGKGLEWIGYINPYNDGTKYNEKFQGRVTISSDKSISTAYMELSSLRSEDTAMYYCARGTYYYGTRVFDYWGQGTLVTVSS VL: DIVMTQSPATLSLSPGERATLSCRSSKSLQNVNANTYLYWFQQKPGQSPQLLIYRMSNLNSGVPDRFSGSGSGTEFTLTISSLEPEDFAVYYCMQHLEYPITFGAGTKLEIK | 4.18
H1.52 / L1.145 (antibody, V domains shown, vs H1L1 (Kabat): VH S100cT; VL L27cQ/F96I; also called 4G7 H1.52_L1.145) VH: EVQLVESGGGLVKPGGSLKLSCAASGYTFTSYVMHWVRQAPGKGLEWIGYINPYNDGTKYNEKFQGRVTISSDKSISTAYMELSSLRSEDTAMYYCARGTYYYGTRVFDYWGQGTLVTVSS VL: DIVMTQSPATLSLSPGERATLSCRSSKSLQNSNGNTYLYWFQQKPGQSPQLLIYRMSNLASGVPDRFSGSGSGTEFTLTISSLEPEDFAVYYCMQHLEYPITFGAGTKLEIK | 6.41
H1.52 / L1.138 (antibody, V domains shown, vs H1L1 (Kabat): VH S100cT; VL S27eV/A55N; also called 4G7 H1.52_L1.138) VH: EVQLVESGGGLVKPGGSLKLSCAASGYTFTSYVMHWVRQAPGKGLEWIGYINPYNDGTKYNEKFQGRVTISSDKSISTAYMELSSLRSEDTAMYYCARGTYYYGTRVFDYWGQGTLVTVSS VL: DIVMTQSPATLSLSPGERATLSCRSSKSLLNVNGNTYLYWFQQKPGQSPQLLIYRMSNLNSGVPDRFSGSGSGTEFTLTISSLEPEDFAVYYCMQHLEYPFTFGAGTKLEIK | 3.93
